Several values for one entry are separate records, joined by “and”; a condition that tells them apart may be missing. Identical values can stand only once.
Biological target: T1, Escherichia coli GroEL chaperone (Escherichia coli, UniProt P0A6F5 2-548)
T1 construct: GroEL chaperonin, Escherichia coli; monomer band at 57 kDa, native 14-mer of 800 kDa; also called 14-mer GroEL; source: expressed and purified as previously described; copies: 14
Experiment: native gel or EMSA; BN-PAGE after incubation of unfolded gp23 (11.4 µM) with GroEL (0.8 µM) in 50 mM Tris pH 7.5, 50 mM KCl, MgCl2, 1 mM ADP, 10 min at RT; subunits in the bands quantified by iBAQ
Settings: both partners purified

T1 sequence (P0A6F5 2-548): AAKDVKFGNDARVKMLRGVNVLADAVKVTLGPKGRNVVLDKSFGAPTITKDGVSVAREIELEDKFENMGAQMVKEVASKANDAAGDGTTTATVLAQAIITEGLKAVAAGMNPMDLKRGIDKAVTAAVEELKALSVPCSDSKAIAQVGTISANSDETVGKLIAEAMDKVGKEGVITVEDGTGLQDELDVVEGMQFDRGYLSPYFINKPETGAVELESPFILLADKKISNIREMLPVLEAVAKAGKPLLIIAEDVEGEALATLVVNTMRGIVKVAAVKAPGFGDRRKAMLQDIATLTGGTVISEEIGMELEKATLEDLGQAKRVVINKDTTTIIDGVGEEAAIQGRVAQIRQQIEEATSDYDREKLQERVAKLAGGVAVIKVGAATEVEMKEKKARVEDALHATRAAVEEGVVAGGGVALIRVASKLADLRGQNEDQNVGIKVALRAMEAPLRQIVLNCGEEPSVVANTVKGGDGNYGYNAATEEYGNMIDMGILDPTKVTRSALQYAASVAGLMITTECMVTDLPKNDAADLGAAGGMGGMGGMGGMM

B1: bacteriophage T4 capsid protein (gp23) (natural protein, UniProt P04535 1-521, looked up)
chain: MTIKTKAELLNKWKPLLEGEGLPEIANSKQAIIAKIFENQEKDFQTAPEYKDEKIAQAFGSFLTEAEIGGDHGYNATNIAAGQTSGAVTQIGPAVMGMVRRAIPNLIAFDICGVQPMNSPTGQVFALRAVYGKDPVAAGAKEAFHPMYGPDAMFSGQGAAKKFPALAASTQTTVGDIYTHFFQETGTVYLQASVQVTIDAGATDAAKLDAEIKKQMEAGALVEIAEGMATSIAELQEGFNGSTDNPWNEMGFRIDKQVIEAKSRQLKAAYSIELAQDLRAVHGMDADAELSGILATEIMLEINREVVDWINYSAQVGKSGMTLTPGSKAGVFDFQDPIDIRGARWAGESFKALLFQIDKEAVEIARQTGRGEGNFIIASRNVVNVLASVDTGISYAAQGLATGFSTDTTKSVFAGVLGGKYRVYIDQYAKQDYFTVGYKGPNEMDAGIYYAPYVALTPLRGSDPKNFQPVMGFKTRYGIGINPFAESAAQAPASRIQSGMPSILNSLGKNAYFRRVYVKGI
notes: major capsid protein gp23 of bacteriophage T4, printed size 56 kDa; Used as an unfolded substrate of GroEL; also called major capsid protein gp23; unfolded gp23; source: expressed and purified as previously described; unfolded in 8 M urea for one hour at RT
- stoichiometry N: 1 and 2
